# Measurements: the supplement of paper PMC10567573
# B1: ATL3 (parent)
# chain: HFKKTKKMGGKDFSFRYQQELEEE
# Variants of: B1
# Test: protein stability index of a GFP-peptide fusion (GPS, HEK-293T) (PSI 1-6); higher = more stable
# Settings: c terminus: a fixed tail appended
# 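Note: lentivirally expressed fusions sorted by FACS into six bins by GFP to DsRed ratio, PSI derived from sequencing read proportions per bin multiplied by bin number.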
row,Variant,protein stability index
1,HFKKTKKMGGKDFSFRYQEELEEE,2.45
2,HFKKTKKMGGKDFSFRYQFELEEE,1.71
3,HFKKTKKMGGKDFSFRYQSELEEE,2.5
4,HFKKTKKMGGKDFSFRYQNELEEE,4.01
5,HFKKTKKMGGKDFSFRYQRELEEE,2.52
6,HFKKTKKMGGKDFSFRYQAELEEE,3.52
7,HFKKTKKMGGKDFSFRYQIELEEE,1.46
8,HFKKTKKMGGKDFSFRYQKELEEE,1.89
9,HFKKTKKMGGKDFSFRYQCELEEE,1.57
10,HFKKTKKMGGKDFSFRYQDELEEE,3.36
11,HFKKTKKMGGKDFSFRYQPELEEE,3.56
12,HFKKTKKMGGKDFSFRYQTELEEE,2.21
13,HFKKTKKMGGKDFSFRYQWELEEE,2.03
14,HFKKTKKMGGKDFSFRYQHELEEE,2.38
15,HFKKTKKMGGKDFSFRYQVELEEE,2.92
16,HFKKTKKMGGKDFSFRYQGELEEE,3.99
17,HFKKTKKMGGKDFSFRMQQELEEE,4.21
18,HFKKTKKMGGKDFSFRNQQELEEE,5.28
19,HFKKTKKMGGKDFSFRGQQELEEE,4.68
20,HFKKTKKMGGKDFSFRWQQELEEE,2.61
21,HFKKTKKMGGKDFSFRQQQELEEE,4.78
22,HFKKTKKMGGKDFSFRDQQELEEE,5.61
23,HFKKTKKMGGKDFSFRPQQELEEE,4.68
24,HFKKTKKMGGKDFSFRKQQELEEE,4.89

row,Variant,protein stability index
1,HFKKTKKMGGKDFSFRVQQELEEE,2.03
2,HFKKTKKMGGKDFSFRRQQELEEE,5.25
3,HFKKTKKMGGKDFSFRSQQELEEE,3.14
4,HFKKTKKMGGKDFSFRHQQELEEE,3.72
5,HFKKTKKMGGKDFSFRLQQELEEE,2.1
6,HFKKTKKMGGKDFSFREQQELEEE,5.02
7,HFKKTKKMGGKDFSFRTQQELEEE,2.38
8,HFKKTKKMGGKDLSFRYQQELEEE,4.45
9,HFKKTKKMGGKDRSFRYQQELEEE,3.94
10,HFKKTKKMGGKDVSFRYQQELEEE,4.96
11,HFKKTKKMGGKDTSFRYQQELEEE,4.97
12,HFKKTKKMGGKDQSFRYQQELEEE,5.21
13,HFKKTKKMGGKDMSFRYQQELEEE,3.76
14,HFKKTKKMGGKDGSFRYQQELEEE,5.01
15,HFKKTKKMGGKDISFRYQQELEEE,4.91
16,HFKKTKKMGGKDASFRYQQELEEE,5.27
17,HFKKTKKMGGKDPSFRYQQELEEE,4.29
18,HFKKTKKMGGKDHSFRYQQELEEE,2.79
19,HFKKTKKMGGKDDSFRYQQELEEE,5.57
20,HFKKTKKMGGKDYSFRYQQELEEE,2.75
21,HFKKTKKMGGKDKSFRYQQELEEE,4.09
22,HFKKTKKMGGKDNSFRYQQELEEE,5.05
23,HFKKTKKMGGKDESFRYQQELEEE,5.36
24,HFKKTKKMGGKDCSFRYQQELEEE,4.74

row,Variant,protein stability index
1,HFKKTKKMGGKDSSFRYQQELEEE,4.83
2,HFKKTKKMGHKDFSFRYQQELEEE,2.19
3,HFKKTKKMGTKDFSFRYQQELEEE,1.61
4,HFKKTKKMGIKDFSFRYQQELEEE,1.68
5,HFKKTKKMGSKDFSFRYQQELEEE,3.53
6,HFKKTKKMGCKDFSFRYQQELEEE,1.56
7,HFKKTKKMGLKDFSFRYQQELEEE,2.07
8,HFKKTKKMGPKDFSFRYQQELEEE,1.3
9,HFKKTKKMGFKDFSFRYQQELEEE,1.82
10,HFKKTKKMGAKDFSFRYQQELEEE,1.75
11,HFKKTKKMGEKDFSFRYQQELEEE,5.39
12,HFKKTKKMGYKDFSFRYQQELEEE,1.79
13,HFKKTKKMGQKDFSFRYQQELEEE,1.86
14,HFKKTKKMGMKDFSFRYQQELEEE,2.71
15,HFKKTKKMGWKDFSFRYQQELEEE,1.7
16,HFKKTKKMGDKDFSFRYQQELEEE,1.8
17,HFKKTKKMGVKDFSFRYQQELEEE,2.04
18,HFKKTKKMGKKDFSFRYQQELEEE,2.56
19,HFKKTKKMGRKDFSFRYQQELEEE,2.03
20,HFKKTKKMGGKDFSFRYQQDLEEE,2.25
21,HFKKTKKMGGKDFSFRYQQFLEEE,3.58
22,HFKKTKKMGGKDFSFRYQQALEEE,3.31
23,HFKKTKKMGGKDFSFRYQQCLEEE,4.73
24,HFKKTKKMWGKDFSFRYQQELEEE,1.88

row,Variant,protein stability index
1,HFKKTKKMVGKDFSFRYQQELEEE,1.82
2,HFKKTKKMTGKDFSFRYQQELEEE,2.11
3,HFKKTKKMRGKDFSFRYQQELEEE,1.77
4,HFKKTKKMHGKDFSFRYQQELEEE,1.84
5,HFKKTKKMPGKDFSFRYQQELEEE,2.05
6,HFKKTKKMLGKDFSFRYQQELEEE,2.26
7,HFKKTKKMFGKDFSFRYQQELEEE,2.64
8,HFKKTKKMYGKDFSFRYQQELEEE,1.74
9,HFKKTKKMSGKDFSFRYQQELEEE,1.75
10,HFKKTKKMCGKDFSFRYQQELEEE,2.61
11,HFKKTKKMNGKDFSFRYQQELEEE,1.99
12,HFKKTKKMMGKDFSFRYQQELEEE,1.28
13,HFKKTKKMKGKDFSFRYQQELEEE,2.7
14,HFKKTKKMQGKDFSFRYQQELEEE,1.96
15,HFKKTKKMDGKDFSFRYQQELEEE,2.23
16,HFKKTKKMEGKDFSFRYQQELEEE,1.77
17,HFKKTKKMIGKDFSFRYQQELEEE,2.48
18,HFKKTKKMAGKDFSFRYQQELEEE,1.41
19,HFKKTKKMGGKDFSPRYQQELEEE,4.31
20,HFKKTKKMGGKDFSNRYQQELEEE,1.66
21,HFKKTKKMGGKDFSRRYQQELEEE,1.83
22,HFKKTKKMGGKDFSHRYQQELEEE,2.71
23,HFKKTKKMGGKDFSLRYQQELEEE,2.46
24,HFKKTKKMGGKDFSGRYQQELEEE,2.22

row,Variant,protein stability index
1,HFKKTKKMGGKDFSERYQQELEEE,1.39
2,HFKKTKKMGGKDFSTRYQQELEEE,2.24
3,HFKKTKKMGGKDFSIRYQQELEEE,1.42
4,HFKKTKKMGGKDFSMRYQQELEEE,2.39
5,HFKKTKKMGGKDFSDRYQQELEEE,1.76
6,HFKKTKKMGGKDFSYRYQQELEEE,1.54
7,HFKKTKKMGGKDFSCRYQQELEEE,3.07
8,HFKKTKKMGGKDFSKRYQQELEEE,3.04
9,HFKKTKKMGGKDFSARYQQELEEE,2.54
10,HFKKTKKLGGKDFSFRYQQELEEE,1.48
11,HFKKTKKQGGKDFSFRYQQELEEE,2.21
12,HFKKTKKVGGKDFSFRYQQELEEE,1.64
13,HFKKTKKTGGKDFSFRYQQELEEE,2.63
14,HFKKTKKRGGKDFSFRYQQELEEE,2.81
15,HFKKTKKWGGKDFSFRYQQELEEE,2.35
16,HFKKTKKNGGKDFSFRYQQELEEE,2.4
17,HFKKTKKYGGKDFSFRYQQELEEE,1.99
18,HFKKTKKPGGKDFSFRYQQELEEE,1.92
19,HFKKTKKSGGKDFSFRYQQELEEE,2.77
20,HFKKTKKMGGKMFSFRYQQELEEE,1.46
21,HFKKTKKMGGKNFSFRYQQELEEE,2.1
22,HFKKTKKMGGKTFSFRYQQELEEE,2.24
23,HFKKTKKMGGKAFSFRYQQELEEE,1.88
24,HFKKTKKMGGKPFSFRYQQELEEE,1.99

row,Variant,protein stability index
1,HFKKTKKMGGKYFSFRYQQELEEE,2.32
2,HFKKTKKMGGKEFSFRYQQELEEE,2.34
3,HFKKTKKMGGKRFSFRYQQELEEE,1.96
4,HFKKTKKMGGKLFSFRYQQELEEE,2.67
5,HFKKTKKMGGKSFSFRYQQELEEE,2.65
6,HFKKTKKMGGKIFSFRYQQELEEE,2.43
7,HFKKTKKMGGKVFSFRYQQELEEE,2.7
8,HFKKTKKMGGKDFHFRYQQELEEE,4.29
9,HFKKTKKMGGKDFDFRYQQELEEE,4.48
10,HFKKTKKMGGKDFCFRYQQELEEE,1.08
11,HFKKTKKMGGKDFPFRYQQELEEE,3.12
12,HFKKTKKMGGKDFNFRYQQELEEE,4.1
13,HFKKTKKMGGKDFVFRYQQELEEE,2.17
14,HFKKTKKMGGKDFFFRYQQELEEE,3.85
15,HFKKTKKMGGKDFLFRYQQELEEE,2.35
16,HFKKTKKMGGKDFYFRYQQELEEE,3.61
17,HFKKTKKMGGKDFTFRYQQELEEE,3.24
18,HFKKTKKMGGKDFMFRYQQELEEE,2.91
19,HFKKTKKMGGKDFQFRYQQELEEE,1.93
20,HFKKTKKMGGKDFKFRYQQELEEE,3.31
21,HFKKTKKMGGKDFGFRYQQELEEE,2.54
22,HFKKTKKMGGKDFWFRYQQELEEE,4.01
23,HFKKTKKMGGKDFEFRYQQELEEE,1.53
24,HFKKTKKMGGKDFSFKYQQELEEE,2.51

row,Variant,protein stability index
1,HFKKTKKMGGKDFSFMYQQELEEE,2.84
2,HFKKTKKMGGKDFSFCYQQELEEE,3.28
3,HFKKTKKMGGKDFSFAYQQELEEE,2.98
4,HFKKTKKMGGKDFSFGYQQELEEE,4.22
5,HFKKTKKMGGKDFSFVYQQELEEE,2.54
6,HFKKTKKMGGKDFSFHYQQELEEE,3.09
7,HFKKTKKMGGKDFSFTYQQELEEE,4.47
8,HFKKTKKMGGKDFSFEYQQELEEE,5.18
9,HFKKTKKMGGKDFSFFYQQELEEE,3.07
10,HFKKTKKMGGKDFSFLYQQELEEE,2.45
11,HFKKTKKMGGKDFSFYYQQELEEE,2.18
12,HFKKTKKMGGKDFSFSYQQELEEE,4.39
13,HFKKTKKMGGKDFSFNYQQELEEE,3.69
14,HFKKTKKMGGKDFSFWYQQELEEE,2.11
15,HFKKTKKMGGKDFSFDYQQELEEE,5.02
16,HFKKTKKMGGKDFSFQYQQELEEE,3.08
17,HFKKTKKMGGKDFSFPYQQELEEE,4.96
18,HFKKTKKMGGKDFSFRYNQELEEE,2.54
19,HFKKTKKMGGKDFSFRYIQELEEE,1.85
20,HFKKTKKMGGKDFSFRYPQELEEE,4.2
21,HFKKTKKMGGKDFSFRYLQELEEE,2.64
22,HFKKTKKMGGKDFSFRYRQELEEE,1.44
23,HFKKTKKMGGKDFSFRYGQELEEE,1.87
24,HFKKTKKMGGKDFSFRYAQELEEE,2

row,Variant,protein stability index
1,HFKKTKKMGGKDFSFRYYQELEEE,1.81
2,HFKKTKKMGGKDFSFRYKQELEEE,2.09
3,HFKKTKKMGGKDFSFRYTQELEEE,2.27
4,HFKKTKKMGGKDFSFRYEQELEEE,2.73
5,HFKKTKKMGGKDFSFRYDQELEEE,4.65
6,HFKKTKKMGGKDFSFRYHQELEEE,2.34
7,HFKKTKKMGGYDFSFRYQQELEEE,1.26
8,HFKKTKKMGGADFSFRYQQELEEE,2.69
9,HFKKTKKMGGVDFSFRYQQELEEE,2.39
10,HFKKTKKMGGTDFSFRYQQELEEE,2.22
11,HFKKTKKMGGIDFSFRYQQELEEE,2.27
12,HFKKTKKMGGEDFSFRYQQELEEE,1.2
13,HFKKTKKMGGQDFSFRYQQELEEE,2.24
14,HFKKTKKMGGSDFSFRYQQELEEE,2.4
15,HFKKTKKMGGNDFSFRYQQELEEE,1.78
16,HFKKTKKMGGFDFSFRYQQELEEE,1.24
17,HFKKTKKMGGPDFSFRYQQELEEE,2.06
18,HFKKTKKMGGCDFSFRYQQELEEE,2.17
19,HFKKTKKMGGWDFSFRYQQELEEE,1.78
20,HFKKTKKMGGHDFSFRYQQELEEE,2.11
